Data: patent US7422862B2, “Methods for identifying modulators of apoptosis” (The Burnham Institute, priority 2001, dated 2008)

Key:
[1] = system: Bax-deficient HCT116 cells; test: STS-induced apoptosis in Bax-deficient HCT116 cells; type: cell-based, human
[2] = biological target: T1, Bax (Homo sapiens, UniProt Q07812); test: Bax-induced apoptosis in transfected neuronal cells (DAPI staining); type: cell-based; parameters: expressed in transfected cells
Method: (A) HEK293T cells were transfected with pcDNA3-HA-Bax together with plasmids encoding GFP, GFP-HN(N), or GFP-HN(M). Cell lysates were immunoprecipitated with polyclonal anti-GFP antibody. Immunoprecipitates (IP) or cell lysates were analyzed by immunoblotting using anti-HA or anti-GFP antibodies, respectively. (B) CSM14.1 neuronal cells were co-transfected with pcDNA3-HA-Bax together with plasmids encoding GFP, GFP-HN(N), or GFP-HN(M). Percent apoptosis was determined 48 h later by DAPI staining (mean±SD; n=3).
Rat neuronal cell line CSM14.1 cells were transfected with various plasmids using the Lipofectamine reagent (Invitrogen). For transfection, 10×10^5 cells were plated per well using 6 well plates. Each well received 1 μg DNA plus […] of Lipofectamine. After 24 hours of transfection, the percentage of cell death was determined using 4′-6-diamidino-2-phenylindole (DAPI) staining. […] The data shown were obtained using the cytosolic form of Humanin; however, both cytosolic and mitochondrial forms of Humanin were tested and the results were the same.
Apoptosis assays were performed as follows. Both floating and adherent cells (after trypsinization) were collected 48 hr after transfection, fixed, and stained using 4′,6-diamidine-2′-phenylindole dihydrochloride (DAPI) for assessing apoptosis based on nuclear fragmentation and chromatin condensation (Fields and Song, supra (1989)).
Since Humanin co-immunoprecipitates with Bax but not Bak, the effects of Humanin over-expression on apoptosis induced by these members of the Bcl-2 family was compared. […] Similar results were obtained regardless of whether Humanin was fused to the N- or C-terminus of GFP, with both of these GFP fusion polypeptides localizing to the cytosol of cells.

[3] = biological target: T1, Bax; test: Co-immunoprecipitation of GFP-Humanin fusion polypeptides with Bax in transfected cells; type: binding; parameters: expressed in transfected cells; host or cells: HEK293T; key to Bax binding: +: ability to bind Bax was determined by co-immunoprecipitation assay; −: lacked Bax-binding activity; conditions: for co-immunoprecipitation with tagged Bax: 293T/HEK293T cells, anti-GFP immunoprecipitation
Source text: Humanin (HN) cDNA was sub-cloned into a Green Fluorescence Protein (GFP) expression vector GFP-Cl at the Xhol/Hind III sites, producing a GFP-HN fusion polypeptide. GFP and GFP-HN were transfected into 293T cells with pcDNA3-HA-Bax. Cell lysates from these cells were immunoprecipitated with anti-GFP antibody and subsequently blotted with anti-HA antibody. The lysates were also blotted with ani-GFP antibody to confirm polypeptide expression. […] The data shown were obtained using the cytosolic form of Humanin; however, both cytosolic and mitochondrial forms of Humanin were tested and the results were the same.
Co-immunoprecipitation assays were performed using Humanin polypeptides expressed as fusion polypeptides with the Green Fluorescent Protein (GFP) in human cells. Wild-type Humanin fused to GFP is referred to as GFP-HN and a mutant form of Humanin, where the cysteine at position 8 is replaced with proline, fused to GFP is referred to as GFP-C8P. […] Immunoblot analysis of lysates of the transfected cells confirmed production of all proteins. In addition, GFP-HN also coimmunoprecipitated endogenous Bax from cell lines, which contain relatively high levels of the Bax protein.
Immunoblotting and immunoprecipitations were performed as follows. Immunoblotting was performed as described previously (Fields and Song, Nature 340:245-246 (1989)). For co-immunoprecipitations, cells were cultured in 50 uM […] Valine Alanine Asparate fluoromethyl-ketone (zVAD-fmk) to prevent apoptosis. Cells were suspended in lysis buffer (50 mM Tris-HCl, pH7.4; 150 mM NaCl; 20 mM EDTA; 50 mM NaF; 0.5% NP-40; 0.1 mM Na3VO4; 20 ug/ml Leupeptin; 20 ug/ml Aprotinin; 1 mM DTT; and 1 mM PMSF). Lysates (200 ul diluted in 1 ml final volume of lysis buffer) were cleared by incubation with 15 ul of protein G-Sepharose 4B (Zymed) and then incubated with 15 ul of polyclonal antibody and 15 ul of protein G at 4° C. overnight. Beads were then washed 4 times with 1.5 mls lysis buffer before boiling in Laemmli sample buffer and performing SDS-PAGE/immunoblotting.
In order to explore whether a correlation exists between Humanin binding to Bax and Humanin-mediated suppression of apoptosis, Bax was co-expressed with various GFP-fusion polypeptides encoding wild-type, full-length Humanin or various truncation and site-specific mutants of Humanin (Table 1). Expression of all GFP-fusion polypeptides was confirmed by immunoblotting, and ability to bind Bax was determined by co-immunoprecipitation assay. Each Humanin mutant was scored for ability to suppress apoptosis induced by Bax over-expression by >50% using a 3:1 ratio of HN:Bax plasmid DNA. […] Based on these studies, an active region of the 24 amino-acid Humanin peptide, mapped to residues 7-17.

T1 sequence (Q07812 whole entry, species assumed): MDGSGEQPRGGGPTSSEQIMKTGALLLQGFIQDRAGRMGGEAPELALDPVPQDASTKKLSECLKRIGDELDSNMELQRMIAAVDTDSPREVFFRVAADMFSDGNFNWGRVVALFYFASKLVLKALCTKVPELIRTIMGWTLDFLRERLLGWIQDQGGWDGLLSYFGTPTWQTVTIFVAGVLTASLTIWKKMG

| Substance | suppression of STS-induced apoptosis [1] | suppression of Bax-induced apoptosis, nuclear vs mitochondria-encoded form ([2]; CSM14.1 cells, 48 h, DAPI) | suppression of apoptosis induced by Bax ([2]; CSM14.1 or PC-3 cells, transient co-transfection) | co-immunoprecipitation with tagged Bax [3] | co-immunoprecipitation with tagged Bax ([3]; listed as GFP-HN(N)) | Bax binding ([3]; GFP-fusion polypeptides, co-immunoprecipitation) | co-immunoprecipitation of endogenous Bax ([3]; cell lines with relatively high levels of Bax) | Bax-induced apoptosis ([2]; CSM14.1 cells, 24 hours after transfection, DAPI) |
| --- | --- | --- | --- | --- | --- | --- | --- | --- |
| GFP-HN: Wild-type full-length Humanin fused to Green Fluorescent Protein | failed to suppress | suppressed to comparable extents | about half | co-immunoprecipitated | comparable amounts | + | coimmunoprecipitated |  |
| Humanin: 24 amino acid polypeptide, cytosolic form of human Humanin (SEQ ID NO:2); used as synthetic peptide or expressed fusion |  |  |  | co-immunoprecipitate |  |  |  | decreased |
